Our source for the Kd values is article PMC11712212 (Chemical Science, 2024).

The target of one test is DV12 ([…]) (Homo sapiens, UniProt P63165). The test can be described thus: Biolayer interferometry. The class given is binding. (In general: Biolayer interferometry detects binding as a change in optical thickness at a sensor tip.)
The target in the next test is QTGG (Homo sapiens, UniProt P63165). The test can be described thus: Isothermal titration calorimetry. The class given is binding.
A further test concerns the target SUMO-1 protein (UniProt P63165 1-97). The test is described as follows: BLI.
Test [1] has as its target T1, QTGG, short SUMO-1 remnant after trypsin and Glu-C digestion.
T1 sequence (peptide): QTGG
The test can be described thus: ITC.

For orientation: Kd means a measure of binding affinity in units of concentration. The low end stands for higher affinity, the high end for lower affinity.

Bridge positions count the residues as written; N and C are the ends. Ends that are not written are not given here. Peptide text beside a SMILES is read from it.

SUMO-1 protein, sequence (P63165 1-97): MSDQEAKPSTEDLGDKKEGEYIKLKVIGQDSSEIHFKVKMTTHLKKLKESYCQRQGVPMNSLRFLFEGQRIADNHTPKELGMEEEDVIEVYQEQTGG

Consider `CC(C)C[C@H](NC(=O)[C@@H](N)CCCCN)C(=O)N[C@@H](CCCNC(=N)N)C(=O)N[C@@H](Cc1c[nH]c2ccccc12)C(=O)N[C@H](C(=O)N[C@@H](CC(=O)O)C(=O)N[C@@H](Cc1ccc(O)cc1)C(=O)N[C@@H](C)C(=O)N[C@@H](CCCCN)C(=O)N[C@@H](CCCCN)C(=O)N[C@@H](CCCNC(=N)N)C(=O)N[C@@H](CCCCN)C(=O)O)[C@@H](C)O` [PEP-4, KLRWTDYAKKRK] (H-KLRWTDYAKKRK-OH), for which the Kd on DV12 ([…]) came out at 2 nM.
In the case of `CC(C)C[C@@H]1NC(=O)[C@H](Cc2c[nH]c3ccccc23)NC(=O)[C@H](CCCCN)NC(=O)[C@H](CCC(=O)O)NC(=O)[C@@H]2CCCN2C(=O)[C@@H](N)CSSC[C@@H](C(=O)O)NC(=O)[C@H]([C@@H](C)O)NC(=O)CNC1=O` [CP-1, CPEKWLGTC] (HELM PEPTIDE1{C.P.E.K.W.L.G.T.C}$PEPTIDE1,PEPTIDE1,1:R3-9:R3$$$V2.0; N-terminus and C-terminus assumed), the Kd on QTGG is 71.8 nM.
In the test with SUMO-1 protein, KLRWTDYAKKRK [PEP-4 (KLRWTDYAKKRK)] returned an equilibrium dissociation constant (Kd) of 43.7 nM.
CPEKWLGTC (disulfide 1-9) [CP-1 (…), cystine-linked cyclic peptide] showed a dissociation constant (Kd) in test [1] of 71.8 nM.
CMTPNPTTC (disulfide 1-9) [CP-2 (…)]: in test [1], the Kd was found to be 1800 nM.
